According to the supplement of paper PMC11136658:

Tested on: peptide library, one residue held at a place counted from the Y acceptor
Test: relative phosphorylation of the sub-library (ratio to the mean residue at this position); higher = residue favoured
Outline: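 Within 384-well plates, purified recombinant kinases phosphorylated biotinylated Tyr-centred peptide library mixtures over 90 min using 50 μM ATP spiked with γ-32P-ATP; each mixture fixed one residue at one position from −5 to +5. Streptavidin membrane capture, rinsing, phosphorimaging and ImageQuant gave the intensities. These were normalized per position to the sum of the 18 randomized residues (16 for the Ser/Thr-free library) and multiplied by that number.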

Sequence of FLT1, construct: aa748-end, human (P17948 748-1338, looked up): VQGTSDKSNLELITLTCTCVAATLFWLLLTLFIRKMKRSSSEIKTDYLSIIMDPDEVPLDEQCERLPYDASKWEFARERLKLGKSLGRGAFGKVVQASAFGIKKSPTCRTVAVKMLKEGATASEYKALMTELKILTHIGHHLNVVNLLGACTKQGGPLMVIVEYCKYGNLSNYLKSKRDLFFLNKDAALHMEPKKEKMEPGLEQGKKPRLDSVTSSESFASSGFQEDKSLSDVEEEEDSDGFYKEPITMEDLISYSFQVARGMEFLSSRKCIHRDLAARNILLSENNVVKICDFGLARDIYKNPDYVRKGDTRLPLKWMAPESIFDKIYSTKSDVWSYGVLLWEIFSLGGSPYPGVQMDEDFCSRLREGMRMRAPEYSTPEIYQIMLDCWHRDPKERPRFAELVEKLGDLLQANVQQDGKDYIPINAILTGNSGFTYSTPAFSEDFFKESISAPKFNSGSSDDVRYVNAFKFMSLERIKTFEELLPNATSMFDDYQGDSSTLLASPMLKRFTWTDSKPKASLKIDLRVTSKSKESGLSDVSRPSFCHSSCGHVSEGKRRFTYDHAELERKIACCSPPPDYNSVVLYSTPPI
Sequence of FLT3, construct: aa564-end, human (P36888 564-993, looked up): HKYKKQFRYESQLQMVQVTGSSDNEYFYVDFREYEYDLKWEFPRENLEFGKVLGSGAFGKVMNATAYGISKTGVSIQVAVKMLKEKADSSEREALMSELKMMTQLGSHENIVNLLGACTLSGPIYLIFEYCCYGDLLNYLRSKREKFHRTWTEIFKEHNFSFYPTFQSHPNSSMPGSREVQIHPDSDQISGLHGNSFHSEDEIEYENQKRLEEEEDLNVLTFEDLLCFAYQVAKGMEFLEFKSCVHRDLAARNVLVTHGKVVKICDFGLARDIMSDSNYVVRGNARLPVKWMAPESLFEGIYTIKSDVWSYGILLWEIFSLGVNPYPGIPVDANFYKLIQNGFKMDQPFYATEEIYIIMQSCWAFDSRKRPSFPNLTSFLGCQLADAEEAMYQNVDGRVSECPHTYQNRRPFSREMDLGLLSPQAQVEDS

FLT1, construct: aa748-end, human (from UniProt P17948)
relative phosphorylation
Settings	at +1	at +2	at +3	at +4	at +5	at -1	at -2	at -3	at -4	at -5
A fixed	0.624	0.689	0.604	0.797	0.722	0.496	0.885	0.899	0.91	0.956
D fixed	0.478	1.49	0.636	1.1	1.01	3.57	1.75	1.66	1.4	1.24
E fixed	0.487	0.899	0.582	0.817	0.933	2.46	1.57	1.66	1.38	1.1
F fixed	2.3	1.38	1.99	0.981	1.13	0.92	0.797	1.01	0.956	1.14
G fixed	0.478	0.439	0.633	0.845	0.911	0.446	1.11	1.03	1.1	1.1
H fixed	1.38	1.17	0.7	1.3	1.17	1.18	1.07	1.22	1.12	1.24
I fixed	1.34	0.698	1.46	0.709	0.639	0.948	0.597	0.599	0.653	0.745
K fixed	0.683	1.21	0.625	1.39	1.27	0.432	1.01	0.853	1.01	1.14
L fixed	0.873	0.86	1.63	0.787	0.844	0.639	0.633	0.729	0.693	0.727
M fixed	1	0.867	1.6	0.8	0.786	0.559	0.696	0.73	0.797	0.801
N fixed	0.533	1.19	0.755	1.06	1.11	1.16	1.16	1.17	0.929	0.953
P fixed	0.415	0.574	1.02	1.4	1.28	0.525	1.08	0.781	0.897	1.03
Q fixed	0.957	0.926	0.684	0.88	1.09	0.81	1.14	1.05	1.02	0.936
R fixed	0.875	1.53	0.729	1.46	1.25	0.458	1.13	1.01	1.1	1.11
S fixed	0.67	0.923	0.698	0.968	0.83	0.462	1.14	1.08	0.867	0.982
T fixed	0.987	1.11	0.666	0.83	0.839	0.705	1.04	0.906	0.887	0.891
V fixed	1.94	0.766	1.09	0.681	0.723	0.747	0.655	0.594	0.701	0.763
W fixed	1.63	1.32	1.27	0.985	1.12	0.649	0.724	1.01	1.34	1.02
pThr fixed	0.947	2.03	0.788	1.08	0.963	2.55	1.42	2.05	1.86	1.78
pTyr fixed	2.58	2.77	0.88	0.609	0.679	2.54	2.3	3.12	2.64	1.66

FLT3, construct: aa564-end, human (from UniProt P36888)
relative phosphorylation
Settings	at +1	at +2	at +3	at +4	at +5	at -1	at -2	at -3	at -4	at -5
A fixed	0.822	0.62	0.639	0.968	0.955	0.749	0.806	0.766	1.05	0.952
D fixed	0.318	0.629	0.321	0.688	0.696	1.49	1.19	1.44	1.33	1.14
E fixed	0.643	0.89	0.227	0.826	0.771	1.2	1.15	1.69	1.56	1.15
F fixed	2.12	1.22	1.72	0.984	1.18	1.12	0.669	0.834	1	0.998
G fixed	0.431	0.368	0.603	0.904	1.19	0.574	0.972	0.786	1.21	1.16
H fixed	1.7	0.78	0.96	1	1.15	1.56	1.1	0.946	0.938	0.976
I fixed	1.6	1.19	1.52	1.05	0.961	1.25	0.954	0.688	0.913	0.871
K fixed	0.705	1.02	0.895	1.2	0.902	0.583	0.843	1	0.874	1.05
L fixed	1.21	1.2	1.3	0.878	1.07	1.18	0.88	0.878	1.02	0.997
M fixed	1.2	1	1.09	1.22	1.18	1.02	0.701	1.03	0.889	0.869
N fixed	0.455	1.1	0.54	0.807	0.864	1.25	1.23	1.46	0.951	1.36
P fixed	0.297	0.685	0.959	0.732	1.18	0.777	1.08	0.719	0.903	0.833
Q fixed	1	0.989	0.665	1.17	0.839	1.11	1.26	1.03	1.21	1.17
R fixed	1.01	1.63	1.6	1.89	1.06	0.639	0.957	1.27	0.924	1.43
S fixed	0.687	0.774	0.689	0.858	0.888	0.579	1.05	0.832	0.656	0.717
T fixed	0.77	0.814	0.706	0.741	1.22	0.778	0.894	0.708	0.614	0.612
V fixed	1.61	1.16	1.65	1.08	0.938	1.4	1.52	0.878	0.808	0.787
W fixed	1.43	1.94	1.91	1	0.961	0.746	0.75	1.04	1.15	0.928
pThr fixed	0.505	0.966	0.209	0.413	0.512	1.02	0.971	1.23	0.887	1.02
pTyr fixed	1.92	1.34	0.334	0.649	0.693	2.37	1.29	1.63	1.43	1.11
